From patent publication US20220112291A1 (Pfizer, published 2022)

Key:
[1] = molecular target: human CD1a expressed on cells (human, UniProt P06126 17-327); assay: cell-based or functional assay
[2] = molecular target: T1, human single-chain CD1a-β2M recombinant protein (Human B2M-CD1a ECD-Avi-His6) (human); assay: SPR (Biacore), IgG; antigen taken as human CD1a
T1 construct: Biotinylated in the HTRF, phage selection and Gyrolab assays; also called human CD1a; CD1a protein
T1 sequence (chain, as listed by the source limits assumed): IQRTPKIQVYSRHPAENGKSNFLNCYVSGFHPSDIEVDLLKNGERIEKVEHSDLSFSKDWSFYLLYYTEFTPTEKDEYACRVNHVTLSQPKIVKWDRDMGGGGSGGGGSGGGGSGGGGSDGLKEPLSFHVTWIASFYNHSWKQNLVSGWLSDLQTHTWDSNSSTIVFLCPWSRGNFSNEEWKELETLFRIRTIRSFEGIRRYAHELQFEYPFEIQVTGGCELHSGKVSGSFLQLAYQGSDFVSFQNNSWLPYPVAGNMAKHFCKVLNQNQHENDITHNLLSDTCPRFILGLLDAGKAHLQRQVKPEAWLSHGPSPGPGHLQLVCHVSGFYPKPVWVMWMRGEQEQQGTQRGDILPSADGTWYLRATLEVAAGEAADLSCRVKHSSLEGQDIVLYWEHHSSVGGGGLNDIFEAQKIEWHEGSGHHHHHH

human CD1a expressed on cells, sequence (P06126 17-327): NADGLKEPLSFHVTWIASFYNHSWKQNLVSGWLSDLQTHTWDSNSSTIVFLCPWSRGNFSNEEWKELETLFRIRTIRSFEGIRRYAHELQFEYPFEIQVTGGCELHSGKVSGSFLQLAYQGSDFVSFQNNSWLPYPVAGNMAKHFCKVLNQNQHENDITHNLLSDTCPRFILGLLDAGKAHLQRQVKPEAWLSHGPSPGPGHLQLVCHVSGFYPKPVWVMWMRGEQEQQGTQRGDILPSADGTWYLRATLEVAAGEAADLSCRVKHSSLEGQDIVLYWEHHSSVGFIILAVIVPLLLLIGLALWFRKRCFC

Binder	Inhibition of CD69 expression, IC50 [1] [nM]	Kd [2] [nM]	Inhibition of IL-2 production, IC50 [1] [nM]
Ab556 (antibody, human IgG1, kappa, V domains shown, Optimized variant of Ab138; human IgG1 effector null / kappa; HC with or without terminal lysine) VH: EVQLVESGGGLVQPGGSLRLSCAASGFTFTDHYMHWVRQAPGKGLEWVAFIRNSAGGYTTESNPAVKGRFTISRDNAKNSLYLQMNSLRAEDTAVYYCARETTRIPTGWFAYWGQGTLVTVSS VL: DIQMTQSPSSLSASVGDRVTITCLASEDIYFDLAWYQQKPGKAPKLLIYGGDRLKEGVPSRFSGSGSGTDYTLTISSLQPEDFATYYCQQSESYPYTFGQGTKLEIKR	0.73	0.1	
Ab504 (antibody, human IgG1, kappa, V domains shown, Optimized variant of Ab138; human IgG1 effector null / kappa; HC with or without terminal lysine) VH: EVQLVESGGGLVQPGGSLRLSCAASGFTFTDHYMHWVRQAPGKGLEWVAFIRNKAGGYTTESNPAVKGRFTISRDNAKNSLYLQMNSLRAEDTAVYYCARETTGIPTGWFAYWGQGTLVTVSS VL: DIQMTQSPSSLSASVGDRVTITCLASEDIYFDLAWYQQKPGKAPKLLIYGGDRLKDGVPSRFSGSGSGTDYTLTISSLQPEDFATYYCQQSESYPYTFGQGTKLEIKR	1.69	0.53	
Ab599 (antibody, human IgG1, kappa, V domains shown, Optimized variant of Ab138; human IgG1 effector null / kappa; HC with or without terminal lysine) VH: EVQLVESGGGLVQPGGSLRLSCAASGFTFTDHYMHWVRQAPGKGLEWVGHISGSAGGYTTESNPAVKGRFTISRDNAKNSLYLQMNSLRAEDTAVYYCARETTRIPTGWFAYWGQGTLVTVSS VL: DIQMTQSPSSLSASVGDRVTITCLASEDIYFDLAWYQQKPGKAPKLLIYGGDRLKEGVPSRFSGSGSGTDYTLTISSLQPEDFATYYCQQSESYPYTFGQGTKLEIKR	0.3	0.52	0.08
Ab610 (antibody, human IgG1, kappa, V domains shown, Optimized variant of Ab138; human IgG1 effector null / kappa; HC with or without terminal lysine) VH: EVQLVESGGGLVQPGGSLRLSCAASGFDFTDHYMHWVRQAPGKGLEWVAHTRDKAGGYTTESNPAVKGRFTISRDNAKNSLYLQMNSLRAEDTAVYYCARETTRIPTGWFAYWGQGTLVTVSS VL: DIQMTQSPSSLSASVGDRVTITCLASEDIYFDLAWYQQKPGKAPKLLIYGGDRLKEGVPSRFSGSGSGTDYTLTISSLQPEDFATYYCQQSESYPYTFGQGTKLEIKR	0.44	0.21	0.09
Ab491 (antibody, human IgG1, kappa, V domains shown, Optimized variant of Ab138; human IgG1 effector null / kappa; HC with or without terminal lysine) VH: EVQLVESGGGLVQPGGSLRLSCAASGFTFTDHYMTWVRQAPGKGLEWVAFIRNKANGYTTESNPAVKGRFTISRDNAKNSLYLQMNSLRAEDTAVYYCARETTGIPTGWFAYWGQGTLVTVSS VL: DIQMTQSPSSLSASVGDRVTITCLASEDIYFDLAWYQQKPGKAPKLLIYGGDRLKEGVPSRFSGSGSGTDYTLTISSLQPEDFATYYCQQSYSYPYTFGQGTKLEIKR	1.18	0.62	
Ab572 (antibody, human IgG1, kappa, V domains shown, Optimized variant of Ab138; human IgG1 effector null / kappa; HC with or without terminal lysine) VH: EVQLVESGGGLVQPGGSLRLSCAASGFTFTDHYMTWVRQAPGKGLEWVAFIRNKAGGYTTESNPAVKGRFTISRDNAKNSLYLQMNSLRAEDTAVYYCARETTGIPTGWFAYWGQGTLVTVSS VL: DIQMTQSPSSLSASVGDRVTITCLASEDIYFDLAWYQQKPGKAPKLLIYGGDRLKEGVPSRFSGSGSGTDYTLTISSLQPEDFATYYCQQSESYPYTFGQGTKLEIKR	0.85	0.39	
Ab514 (antibody, human IgG1, kappa, V domains shown, Optimized variant of Ab138; human IgG1 effector null / kappa; HC with or without terminal lysine) VH: EVQLVESGGGLVQPGGSLRLSCAASGFTFTDHYMHWVRQAPGKGLEWVAFIRNSAGGYTTESNPAVKGRFTISRDNAKNSLYLQMNSLRAEDTAVYYCARETTRIPTGWFAYWGQGTLVTVSS VL: DIQMTQSPSSLSASVGDRVTITCLASEDIYFDLAWYQQKPGKAPKLLIYGASTPKDGVPSRFSGSGSGTDYTLTISSLQPEDFATYYCQQSEKYPYTFGQGTKLEIKR	0.99	0.28	
Ab492 (antibody, human IgG1, kappa, V domains shown, Optimized variant of Ab138; human IgG1 effector null / kappa; HC with or without terminal lysine) VH: EVQLVESGGGLVQPGGSLRLSCAASGFTFTDHYMTWVRQAPGKGLEWVAFIRNKANGYTTESNPAVKGRFTISRDNAKNSLYLQMNSLRAEDTAVYYCARETTGIPTGWFAYWGQGTLVTVSS VL: DIQMTQSPSSLSASVGDRVTITCLASEDIYFDLAWYQQKPGKAPKLLIYGGDRLKEGVPSRFSGSGSGTDYTLTISSLQPEDFATYYCQQSESYPYTFGQGTKLEIKR	1.18	0.77	
Ab616 (antibody, human IgG1, kappa, V domains shown, Optimized variant of Ab138; human IgG1 effector null / kappa; HC with or without terminal lysine) VH: EVQLVESGGGLVQPGGSLRLSCAASGFTFEDHYMHWVRQAPGKGLEWVGHISGSAGGYTTESNPAVKGRFTISRDNAKNSLYLQMNSLRAEDTAVYYCARETTRIPTGWFAYWGQGTLVTVSS VL: DIQMTQSPSSLSASVGDRVTITCLASEDIYFDLAWYQQKPGKAPKLLIYGGDRLKEGVPSRFSGSGSGTDYTLTISSLQPEDFATYYCQQSYSYPYTFGQGTKLEIKR	0.41	0.46	0.11
Ab555 (antibody, human IgG1, kappa, V domains shown, Optimized variant of Ab138; human IgG1 effector null / kappa; HC with or without terminal lysine) VH: EVQLVESGGGLVQPGGSLRLSCAASGFTFTDHYMHWVRQAPGKGLEWVAFIRNSAGGYTTESNPAVKGRFTISRDNAKNSLYLQMNSLRAEDTAVYYCARETTRIPTGWFAYWGQGTLVTVSS VL: DIQMTQSPSSLSASVGDRVTITCLASEDIYFDLAWYQQKPGKAPKLLIYGGDRLKEGVPSRFSGSGSGTDYTLTISSLQPEDFATYYCQQSYSYPYTFGQGTKLEIKR	0.99	0.27	
Ab559 (antibody, human IgG1, kappa, V domains shown, Optimized variant of Ab138; human IgG1 effector null / kappa; HC with or without terminal lysine) VH: EVQLVESGGGLVQPGGSLRLSCAASGFTFTDHYMHWVRQAPGKGLEWVAFIRNKAGGYTTESNPAVKGRFTISRDNAKNSLYLQMNSLRAEDTAVYYCARETTTIPTGWFAYWGQGTLVTVSS VL: DIQMTQSPSSLSASVGDRVTITCLASEDIYFDLAWYQQKPGKAPKLLIYGGDRLKEGVPSRFSGSGSGTDYTLTISSLQPEDFATYYCQQSYSYPYTFGQGTKLEIKR	1.29	0.39	
Ab656 (antibody, human IgG1, kappa, V domains shown, Optimized variant of Ab138; human IgG1 effector null / kappa; HC with or without terminal lysine) VH: EVQLVESGGGLVQPGGSLRLSCAASGFDFTDHYMHWVRQAPGKGLEWVAHTRDKAGGYTTESNPAVKGRFTISRDNAKNSLYLQMNSLRAEDTAVYYCARETTRIPTGWFAYWGQGTLVTVSS VL: DIQMTQSPSSLSASVGDRVTITCLASEDIYFDLAWYQQKPGKAPKLLIYGGDRLQEGVPSRFSGSGSGTDYTLTISSLQPEDFATYYCQQSYSYPYTFGQGTKLEIKR	0.48	0.54	0.22
Ab624 (antibody, human IgG1, kappa, V domains shown, Optimized variant of Ab138; human IgG1 effector null / kappa; HC with or without terminal lysine) VH: EVQLVESGGGLVQPGGSLRLSCAASGFDFTDHYMHWVRQAPGKGLEWVAHTRDKAGGYTTESNPAVKGRFTISRDNAKNSLYLQMNSLRAEDTAVYYCARETTRIPTGWFAYWGQGTLVTVSS VL: DIQMTQSPSSLSASVGDRVTITCLASEDIYFDLAWYQQKPGKAPKLLIYGGDRLKEGVPSRFSGSGSGTDYTLTISSLQPEDFATYYCQQSYSYPYTFGQGTKLEIKR	0.35	1.3	0.17
Ab657 (antibody, human IgG1, kappa, V domains shown, Optimized variant of Ab138; human IgG1 effector null / kappa; HC with or without terminal lysine) VH: EVQLVESGGGLVQPGGSLRLSCAASGFTFTDHYMHWVRQAPGKGLEWVAHTRDKAGGYTTESNPAVKGRFTISRDNAKNSLYLQMNSLRAEDTAVYYCARETTRIPTGWFAYWGQGTLVTVSS VL: DIQMTQSPSSLSASVGDRVTITCLASEDIYFDLAWYQQKPGKAPKLLIYGASTPKDGVPSRFSGSGSGTDYTLTISSLQPEDFATYYCQQSEKYPYTFGQGTKLEIKR	0.51	0.41	0.19
Ab623 (antibody, human IgG1, kappa, V domains shown, Optimized variant of Ab138; human IgG1 effector null / kappa; HC with or without terminal lysine) VH: EVQLVESGGGLVQPGGSLRLSCAASGFTFEDHYMHWVRQAPGKGLEWVAHTRDKAGGYTTESNPAVKGRFTISRDNAKNSLYLQMNSLRAEDTAVYYCARETTRIPTGWFAYWGQGTLVTVSS VL: DIQMTQSPSSLSASVGDRVTITCLASEDIYFDLAWYQQKPGKAPKLLIYGGDRLKEGVPSRFSGSGSGTDYTLTISSLQPEDFATYYCQQSYSYPYTFGQGTKLEIKR	0.35	0.56	0.17
Ab585 (antibody, human IgG1, kappa, V domains shown, Optimized variant of Ab138; human IgG1 effector null / kappa; HC with or without terminal lysine) VH: EVQLVESGGGLVQPGGSLRLSCAASGFTFTDHYMHWVRQAPGKGLEWVGHISGSAGGYTTESNPAVKGRFTISRDNAKNSLYLQMNSLRAEDTAVYYCARETTRIPTGWFAYWGQGTLVTVSS VL: DIQMTQSPSSLSASVGDRVTITCLASEDIYFDLAWYQQKPGKAPKLLIYGASTPKDGVPSRFSGSGSGTDYTLTISSLQPEDFATYYCQQSEKYPYTFGQGTKLEIKR	0.38	0.32	0.14
Ab560 (antibody, human IgG1, kappa, V domains shown, Optimized variant of Ab138; human IgG1 effector null / kappa; HC with or without terminal lysine) VH: EVQLVESGGGLVQPGGSLRLSCAASGFTFTDHYMHWVRQAPGKGLEWVAFIRNKAGGYTTESNPAVKGRFTISRDNAKNSLYLQMNSLRAEDTAVYYCARETTTIPTGWFAYWGQGTLVTVSS VL: DIQMTQSPSSLSASVGDRVTITCLASEDIYFDLAWYQQKPGKAPKLLIYGGDRLKEGVPSRFSGSGSGTDYTLTISSLQPEDFATYYCQQSESYPYTFGQGTKLEIKR	1.61	0.35	
Ab609 (antibody, human IgG1, kappa, V domains shown, Optimized variant of Ab138; human IgG1 effector null / kappa; HC with or without terminal lysine) VH: EVQLVESGGGLVQPGGSLRLSCAASGFTFEDHYMHWVRQAPGKGLEWVAHTRDKAGGYTTESNPAVKGRFTISRDNAKNSLYLQMNSLRAEDTAVYYCARETTRIPTGWFAYWGQGTLVTVSS VL: DIQMTQSPSSLSASVGDRVTITCLASEDIYFDLAWYQQKPGKAPKLLIYGGDRLKEGVPSRFSGSGSGTDYTLTISSLQPEDFATYYCQQSESYPYTFGQGTKLEIKR	0.39	0.56	0.12
Ab579 (antibody, human IgG1, kappa, V domains shown, Optimized variant of Ab138; human IgG1 effector null / kappa; HC with or without terminal lysine) VH: EVQLVESGGGLVQPGGSLRLSCAASGFTFTDHYMTWVRQAPGKGLEWVAFIRNSAGGYTTESNPAVKGRFTISRDNAKNSLYLQMNSLRAEDTAVYYCARETTRIPTGWFAYWGQGTLVTVSS VL: DIQMTQSPSSLSASVGDRVTITCLASEDIYFDLAWYQQKPGKAPKLLIYGGDRLKEGVPSRFSGSGSGTDYTLTISSLQPEDFATYYCQQSYSYPYTFGQGTKLEIKR	0.73	0.27	
